Laboratory results: the DeepSol protein solubility set

Test: soluble on expression in E. coli; label from the status in PepcDB or PDB records
With “GPGSMNRAESSANALGEEFVKNMNTALDIVESLVAKGEAQFAILASAKSTFCVGADIDQMYTVTDPAVAVQVPTVGHKLFNRIEQEKFPIVAAINGLALGGGFEMSLACHQRLMASTAKVGFPECLLGLLPGGGGTVRTQRLCGLTKTVQWIMTSKQIKPQEAKSAGACDVIIPADDRWNGEHRFYEGVRKWAGQYLSNKPARLSKRKNISLMDQVLENTTFGRRKVADETIKMLNKKTRGKYIAQYKALECIMYSATHSNQQGFDKECRGFAELLCSPEAKNQMSLYFLQEGMKKSADKTGVPKDKVMPVNRVGVIGAGVMGSGIVHYFAKNNIPVAVKDLTEESVKQGITNVRAEFERAVRRKRMVTAELDGKMALVTGGTTNEVFRDADVIVEAAVEVMDIKKKVIQQLEKDGILHSKSLFATNTSSLSLTEMQTVAKCPHNIVGMHFFNPVSKMPLVEVIKGKSTSTEAAAAIFNLALKTGKIPIIVNDGPGFLVNRILGVYMAEAGRLAVDERCHPACVDEAILAFGMPMGPFRLLDEVGLDVACHVGPVLANGLKSDRFSVSATISQMVADGYLGRKNRKGFYTYAAEGKEAGLNSAVLQKYLGEELSASISETEIVDRCVLLMVNEATRILDEGIAMSPEDVDTGMVWGTGFPPFRGGLLQYADHRGIANVVAALEQLQRKTKRDYFAPTETLKKMAIEGKRFFPTRPYVPYQERHGYPKVTY” the “soluble on expression in E. coli” value was “not soluble”.
With “MSLANSKVYAIPTTCNSGIFVGRAENLDAIDIMKDPNYTGKVSIVGFDVANCSDNNSDDNHKNHNETAIGNGPTPKWHNSNYTSDFLNVAQQGKDTMISATLPNPVPSQEIGSVGQIAYGSQISDADFKELASVDIKNINQSSPYFVRNYGQMVSKLGDIIEKYHTELMDSNGNATIYLRPFHEMNSPWLWWGFKNQDDFKNLWIHLHNYLVNDRKFTWLKFCFAASAGDPSLDPAHVKGANSYYPGNNYVDTVALDGYSDDPSNDSGIKKQYAELTATGKPFGFAELGAKVDGDFVNVPNERTQQNVETRPFNYQKWSDAIQKYYSNAKYCIVFGGAYDPRNNLHGTSLFSNEGHHHHHH” the “soluble on expression in E. coli” value was “soluble”.
With “MSDMSDLEDDQTGHCGSGEHSGPFDPKRHAREQHNALERRRRDNIKDMYTSLREVVPDANGERVQASRAVILKKAIESIEKGQSDSATLSVDVAEQESKNAKLREEIARLKAKKDPSSSQSIIQ” the “soluble on expression in E. coli” value was “not soluble”.
In the case of “MHINRTGSSQPSIELERFYSASQSLASSSVRELSPAEHANLQAITDYLKDHVFAAHKLPLSESAVDQDAVHAHNEQLDKIIDARARRLLDEGETPATIADTFAKAEKFDRMATTASITLRATPFAAASVLQYMQPAINKGDWLPMPLKPLTPFVSGALSGIMDQVGTTVMNRATGNLHYLSTPPEKLHDAMAASVKRHSPGVMRQAVDLGIAIQAYSARNAVRTVLAPALASRPAVQGAVDISVSAAGGLAANAGFGNRMHSVQARDHLRGGAFVLGIKDQEPKADLSEETDWLVAYKAIKSASYSGAALNAGKRVAGLPLDVATDGLKAVRSLVSATGLAQNGLALAGGFAGVGKLQEMATKNITDPATKAAVSQLTNMAASTGVFAAWTTAAVATDPAVKKAESFLQDTVKSAASSSTSYVADQTVKLAKAGIDASGEAIAATGASLLDTLRRRNAREPDIEEGGIAAGSPSAVPFQPGRS”, the “soluble on expression in E. coli” value is reported as “not soluble”.
With “MGSDKIHHHHHHMKMFKLEEQKLKDLGAIITTNEIKQQPELWLETYEIYKSNKEKLSRFIDTISNNHGQFRVIFTGAGTSAYIGNSILPYLKNKNDIRKYIFEAIPTTDIVSNPYDYLKKDIPTLLISFARSGNSPESLAALNLGNKIVDNFYHLAITCNPEGELAKMTKNDENNYLLLMPSKSNDEGFAMTGSFSCMMLSAMLIFDSLEDDVEKSYINAIIEMGRNVIDRKDEIHELINKDFDRVVYLGSGGLGGLTQEAQLKLLELTAGKISTVYDSPMGFRHGPKSFIDENTLVFEFVSNCLYTRKYDLDVLEEIKRDKIAKFTCAVSVENENNFSGTKFEFKEKYNKLPDVYLAMPYILFAQTIALFVSVKVGNKPDTPSATGTVNRVVKGVTIYEY” the “soluble on expression in E. coli” value was “not soluble”.
With “YEKYRWSISRSGYLIILGRDASQNESIVKKYLRDKDIFLHADIIGAPATIIITQDNKTISEEDIYDAAVMAASYSKAWKVGLASVDIFWVLGNQVSKSPPSGEYLNK” the “soluble on expression in E. coli” value was “not soluble”.
In the case of “VERMYDVTPPGVVMGLAWTAMGGSTLFVETSLRRPQDKDAKGDKDGSLEVTGQLGEVMKESARIAYTFARAFLMQHAPANDYLVTSHIHLHVPEGATPKDGPSAGCTIVTALLSLAMGRPVRQNLAMTGEVSLTGKILPVGGIKEKTIAAKRAGVTCIVLPAENKKDFYDLAAFITEGLEVHFVEHYREIFDIAFPDEQAEALAVER”, the “soluble on expression in E. coli” value is reported as “soluble”.
For “MAHHHHHHMRCCSTALRTGRRGPGGWTEPRLQQATSTDFMRDSTGTGGDNNNNNNNDGGKGPSSALKRHFNVNDFSMIERQQMTLTKLMRITMDATFKPKDPDSRTYGGDGATQRAALREELKTMDSRIVPFAHEEILNDYLKNIVELSGPSGQRYDREMLRGRLVGLLFFTETDRSLAFMRLLREFHQRHRRDFVVVAISLGGKEMMDITRQHGFYHCSHRDGATWVQRDTGLMVRPWTPLPRLIVVNGTSGEEITSSGVTAVKAHPNTCFEKWKNGEEGCDWWDYIKTFYM”, the “soluble on expression in E. coli” value was “soluble”.
With “MSLCDVLQMARSTYYYEAKIRDDQDEELSELIVDIFKNSRDNYGQRKIKIELRKKGWTVSRRRIGRIMKEQGLVSKYTVAQFKPAKTSCNESEIGNTLNREFNQEQELKVVVSDLTYVRVQQKWHYICVLVDLYNREIIGYSAGPHKSAELVQRAFASVKYNLQRLELFHTDRGSEFKNKLIDQALETFGIERSLSEKGTPYDNAVAEATFKTIKTEFVRGAVFSSQQELDLELFDYVHWFNTIRIHGSLDYLTPTEYKLMNLEGHHHHHH” the “soluble on expression in E. coli” value was “not soluble”.
For “MAVIEAEGLWKIFGGDPERARTLAKEGMSKAEVKEETGSVIAVDDANFEVQEQEIFVVMGLSGSGKSTLLRCVNRLIEPTFGKVHVHDDEVTAFDEDRLRKLRRTKMSMVFQNFGLFPHRTVIGNVEYGLEVAGMDKEKRRGKARQSLELVGLDGYEDSQTSQLSGGMQQRVGLARALVNDPEILLMDEAFSALDPLIRADMQNELLELQEQWDPACTILFITHDLDEALKMGDRIAIMKDGRIAQIGTPTEILTEPADEYVRSFVENVDRTKIVPARTVMRALGDDETVAADGPSVSPHTPIAELLPALVDADGPLAVRDSGGTLQGVVSQDAVMEEVVQNADGARRRDARAGRTDEDPEAAVALEHHHHHH”, the “soluble on expression in E. coli” value was “soluble”.
For “GKPFYYDVNFNLADSRAYITKYENPKGLLGDYYVGKEIGEIWGVETLGFFTSEEDIKNHADQSWCTSYPGTRPLAPGDLKFKDENKDGKITDGAWTLEDHGDYKIIGNSRARYTFGLSANAQWNGFDLSLFAQGVGKKDYYPGTGDLYFWGIYAQPWTNITKGNMYDHWTEENPDAYFPRMKAYVAENTDRECGVVQTRYLQNAAYMRLKNLTVGYTLPKVLLNKIGIERLRIFFSGDNLCEFSGLYKHYKVDPESLGNIVYPLQRSYSFGLNVTF”, the “soluble on expression in E. coli” value was “not soluble”.
For “SGARRMETDYNPVELSSMSGFEEGSELNGFEGADMKDMQLEAEAVVNDVLFAVNHMFVSKSMPCADDVAYINVETKERNRYCLELTEAGLRVVGYAFDQVEDHLQTPYHETVYSLLDTLSPAYREAFGNALLQRLEALKRDGQS”, the “soluble on expression in E. coli” value was “soluble”.
In the case of “MREYKVVVLGSGGVGKSALTVQFVTGTFIEKYDPTIEDFYRKEIEVDSSPSVLEILDTAGTEQFASMRDLYIKNGQGFILVYSLVNQQSFQDIKPMRDQIVRVKRYEKVPLILVGNKVDLEPEREVMSSEGRALAQEWGCPFMETSAKSKSMVDELFAEIVRQMNYSSLPEKQDQCCTTCVVQ”, the “soluble on expression in E. coli” value is reported as “not soluble”.
For “MGHHHHHHSHMDGTRTSLDIEEYSDTEVQKNQVLTLEEWQDKWVNGKTAFHQEQGHQLLKKHLDTFLKGKSGLRVFFPLCGKAVEMKWFADRGHSVVGVEISELGIQEFFTEQNLSYSEEPITEIPGTKVFKSSSGNISLYCCSIFDLPRTNIGKFDMIWDRGALVAINPGDRKCYADTMFSLLGKKFQYLLCVLSYDPTKHPGPPFYVPHAEIERLFGKICNIRRLEKVDAFEERHKSWGIDCLFEKLYLLTEK”, the “soluble on expression in E. coli” value was “soluble”.
With “MGTFREEGSVSSGTKQEFHTGKLVTTKGDKELLIDNEKVTSGHTTTTRRSCSKVITKTVTNADGRTETTKEVVKSEDGSDCGDADFDWHHTFPSRGNLDDFFHRDKDDFFTRSSHEFDGRTGLAPEFAALGESGSSSSKTSTHSKQFVSSSTTVNRGGSAIESKHF” the “soluble on expression in E. coli” value was “soluble”.
For “MSLAQQKPVEKVDSDGVYLMPDQMPEFPGGMQAMMKFLTTNIKYPVEAQKKGVSGRVIVQFVIMEDGTLDQAKVVRGVDPLLDEEALRVVKLMPKWKPGMDRGEAVKVRFTAPIMFNLSRSEAQRPTFPELVVPIGQEVENRSLQGVWQSCVAQPGEHGYKILLLPVLKIVSPDQTFMNIMTAGMNGRSNAIIYCQGEYSLPSDGTYVEMVEKSVDPVFIQGVKNEISVERLHDNLIKLSFTVPGQGRKVTEYWFRAPSPDVKIMAEGHHHHHH”, the “soluble on expression in E. coli” value was “soluble”.
For “MGSDKIHHHHHHMKIIDGNIASPLGFSADGLHAGFKKRKKDFGWIVSEVPASVAGVYTTNKVIAAPLIVTRESVKKAQKMQALVVNSGVANSCTGLQGMEDAYTMQKWTATKLKIAPELVGVASTGVIGDLMPMDTLQKGLSKLVVNGNSDDFAQAILTTDTKVKTVAVTEQFGRDEVTMAGVAKGSGMIHPNMATMLAFITCDAVISSETLQLALSQNVETTFNQITVDGDTSTNDMVLVLSNGCTLNKEILPDTPEFDKFSAMLHFVMQELAKKIAKDGEGATKLIEVEVINAPNSLDACMMAKSVVGSSLVKTAIFGEDPNWGRILAAVGYAGVDVPVDNIDIYLADIPVMLASSPVDFDEEDMQDVMRADTIKIIVDLHAGDSVGKAWGCDLSYDYVKINALYRT”, the “soluble on expression in E. coli” value was “not soluble”.
With “MQTEGAQEMVLQDAVAGIYKKLVVDASGTQLLGAILVGDNSDYDALLHCYLNKTVLPDHAANLLFDTGMLDGEMPDSAIICSCHNVTKGDLVAEIQAGTTNLTDLKANTKAGTGCGGCSNMVKSVLDTQLAAMGVEVNNHLCEHFELSRQEMFHICQVEQIKDFDTLIALHGKGHGCDICKPTAASVFASLWNEHIMEPQHQSLQDSNDAFMANLQKDGSYSIVPRVPGGEITPDKLIVLGEVAQQYDLYTKITGGQRVDLFGAQLEQLPEIWQTLIDAGFETGHAYGKSVRTVKSCVGSTWCRYGVDDSVGLAIELENRYKGLRAPHKLKFAVSGCTRECAEAQSKDIGVIATENGWNLYVCGNGGMRPRHADLFASDLSKSELITMIDRVLMFYVSTADRLQRTSVWMENMEGGLDYLKQVILDDSLNLCDSLDEQMARVVDTYQCEWKSTLDNPQKLQRFRPFLNSTSGSKVLPYQRVRGQRIPVKQEV” the “soluble on expression in E. coli” value was “not soluble”.
In the case of “MGGVTSKVNVDVVQEQVKKDPVVMYTKTSCTFCNRAKDLFSDVRVAYKEVNLDTLKASQPDDYLGIVNGLVYTTRQTSVPQIFVCGRFIGGYTELDALRNSGHLFEAIAQCTGENSPKE”, the “soluble on expression in E. coli” value is reported as “not soluble”.
With “MSIKPIDFQMMIPKTAEISKIQNDQQQKSVVVNEQQTNITRQKFEENVNTVHARENAEKVRIDSEQKKKKEERGRKKNPNRAKYGTKGEKEPEEQTSVIDIRL” the “soluble on expression in E. coli” value was “not soluble”.
With “MGSDKIHHHHHHMDVTSTLSLGDPLEPARKATADMLRSRDHSFSLPQPFYCDQRLFEIDMQEIFHKEWLIAGMTCEIPAKGNFLTLQIGKNPVLVIRGAEGQVHAFHNVCRHRGSRLCVSEKGKVAKLVCPYHQWTYELDGRLLFAGTEMGADFDMKEYGLKPIQVKTAGGYIFISLAENPPAIDDFLATLEHYMEPYDMENAKVAVQTTIREAANWKLVIENNRECYHCNGSHPELLKTLLEWDDVTDPRASQAFKDQVAACTSAWDAEKIPYAHASFGLRNRIVRMPLLDGTVSMTMDGKQGSKKLMGRIKNPDLGSMRILHLPHSWNHCMGDHLIVFTVWPISAQETLVTTKWLVHKDAVEGVDYDVARLREVWDATNDQDRRLAEENQRGINSDAYQPGPYSKTYEFGVINFLDWYSERMLNNLGEESAHVRKVAGS” the “soluble on expression in E. coli” value was “not soluble”.
